Experimental data taken from patent US20230089604A1, “ANTI-ADSORPTION SOLUTION” (Universiteit Gent, priority 2019, published 2023).

Experiments:
Format in all cases: physicochemical
[1] = Peptide stability by HPLC-PDA (0 h vs 3 h); conditions: 1 mg/mL, 3 h at 20° C.
Method: The 3 h peptide stability was evaluated by high performance liquid chromatography equipped with a photo diode array detector.
The peptide stability of peptide […] (SEQ ID No: 1) was evaluated with HPLC-PDA and the Vydac Everest C18 column. The analytical solution (1 mg/mL) in acetonitrile/water (V/V)+0.1% m/V formic acid (i.e. matching solvent composition as the anti-adsorption diluent without hydrolysate components) was chromatographed with the gradient provided in Table 3. Analysis was performed with a Waters Alliance 2695 HPLC with a Waters 2695 Separations Module, combined with a Flow Through Needle, and a Waters 2996 Photodiode Array Detector with Empower 2 software for data acquisition (Waters, Milford, Mass., USA).
The peptide was injected at 0 h and 3 h.

[2] = Proof of principle (pilot experiment): peptide recovery over time in uncoated glass vial inserts, UHPLC-MS/MS; conditions: anti-adsorption diluent Source 1, 100 ng/mL, glass vial insert
Method: The peptide with amino acid sequence […] (SEQ ID No: 1) was stored in uncoated (U)HPLC vial inserts at a concentration of 100 ng/mL in 2 different solvents for a total of approximately 2 h. […] The vials were stored in the UHPLC autosampler compartment during analysis and at 0 min a vial containing solvent 1 and 100 ng/mL peptide was injected onto the UHPLC-MS/MS to serve as reference. The peptide recovery was calculated by dividing the peptide peak area of each time point and condition by the peptide peak area of sample 0 min in solvent 1. Appropriate blank samples were first subjected to the UHPLC-MS/MS for evaluation of interfering substances. This experiment was performed in uniplicate.
UHPLC-MS/MS of peptide […] was conducted with an Acquity H-class quaternary solvent manager, connected to an Acquity Xevo TQ-S triple quadrupole mass spectrometer (Waters, Milford, Mass., USA). The column compartment was kept at 45° C. and the sample compartment at 20° C. Mobile phase A consisted of water/acetonitrile/dimethylsulfoxide 90/5/5 V/V/V supplemented with 0.1% m/V formic acid and mobile phase B consisted of water/acetonitrile/dimethylsulfoxide 5/90/5 V/V/V supplemented with 0.1% m/V formic acid. Chromatography was performed with an Acquity UHPLC BEH300 C18 column (2.1×100 mm, 1.7 μm particle size) (Waters) protected with a suitable guard column. […]

[3] = Functional evaluation of anti-adsorption diluent from 3 sources (consecutive transfer to 5 glass inserts); conditions: 100 ng/mL in 50/50 V/V water/acetonitrile + 0.1% m/V formic acid
Method: Functional evaluation of anti-adsorption diluent from 3 sources. The functionality of anti-adsorption diluent Source 1, Source 2, and Source 3 was evaluated via the peptide […] (SEQ ID No. 1). The peptide was diluted in either solvent (50/50 V/V water/acetonitrile supplemented with 0.1% m/V formic acid) or in 1 of the 3 anti-adsorption diluent sources to a peptide concentration of 100 ng/mL. The solution was either transferred to an insert and immediately analyzed via UHPLC-MS/MS or repeatedly transferred to inserts (5 inserts in total), with analysis of the 5th insert. UHPLC-MS/MS was carried out as previously discussed in the proof of principle (pilot experiment)-section. To prevent peptide degradation, each sample was prepared immediately prior to injection. Per condition 3 replicates were analyzed.
The pilot and pivotal experiments were carried out using anti-adsorption diluent originating from Source 1. Since Bovine Serum Albumin can differ amongst suppliers, anti-adsorption diluent was prepared originating from 3 sources, referred to as Source 1, Source 2, and Source 3. […] (100 ng/mL analytical concentration) was evaluated and (II) the peptide solution was repeatedly transferred from one insert to another (5 inserts in total) with subsequent analysis of the 5th insert. […]

[4] = Anti-adsorption diluent applicability for polypropylene inserts; conditions: 100 ng/mL, polypropylene insert, anti-adsorption diluent Source 1
Method: Anti-adsorption diluent applicability for polypropylene inserts. The functionality of the anti-adsorption diluent Source 1 in polypropylene inserts was evaluated via the peptide […] (100 ng/mL). The peptide was analyzed in (I) a glass insert with 50/50 V/V water/acetonitrile+0.1% m/V formic acid, (II) a polypropylene insert with 50/50 V/V water/acetonitrile+0.1% m/V formic acid, (III) a glass insert with anti-adsorption diluent Source 1, and (IV) a polypropylene insert with anti-adsorption diluent. The UHPLC-MS/MS method provided in the proof of principle experiment was applied. The experiment was performed in triplicate.
Previous experiments were all conducted using glass inserts. Plastic vials and inserts are also widely used for the chromatography of peptides. Therefore, the applicability of the anti-adsorption diluent was evaluated using a polypropylene insert. The peptide […] (100 ng/mL) was either analyzed using a glass or polypropylene insert with or without anti-adsorption diluent (see FIG. 11).

[5] = Proof of concept (pivotal experiment): D-optimal design for the injection solvent and vial coating that minimize glass adsorption, UHPLC-MS/MS peak area
Method: 36 model peptides were selected for evaluation of the anti-adsorption diluent general functionality. The most suitable solvent composition and need of vial coating with the anti-adsorption diluent was evaluated via a D-optimal design model generated by Modde software (Umetrics, Umea, Sweden).
The peptides were analyzed at the concentration specified in Table 5. For model optimization, the analysis wizard was used. […] In the next step, the non-significant model terms (i.e. those not contributing to a higher R^2 and/or Q^2) were removed via the coefficient plot. Outliers in the residuals normal probability plot and the observed versus predicted plot were removed. The optimum was calculated using the optimizer tool of the Modde software.
Using the same UHPLC-MS/MS apparatus as previously described in the proof of principle, the column compartment was kept at 60° C. and the sample compartment at 10° C. respectively. […] The peptides analyzed using the HILIC amide or C18 column system are mentioned in Table 7. […]
To further investigate the wide applicability of this novel anti-adsorption diluent, 36 peptides were selected. […] The necessity of prior coating the vial with anti-adsorption diluent was also evaluated in the same D-optimal design model. Prior to this experiment, the LC-MS suitability of the anti-adsorption diluent was evaluated by injecting the anti-adsorption diluent as such. […]

| Sequence | Additional peaks after 3 h incubation (0.5% reporting threshold) [1] | Glass adsorption of the peptide when using the anti-adsorption diluent [2] | Peptide peak area after transfer to 5 inserts, as % of peak area without transfer [3] | Increase of peptide peak area with anti-adsorption diluent compared to without [4] | Peptide peak area ([5]; 1 nM with anti-adsorption diluent Source 1, glass vial) | Peptide peak area ([5]; 1 nM without anti-adsorption diluent, glass vial) |
| --- | --- | --- | --- | --- | --- | --- |
| MFPTIPLSRLFDNAMLRAH (Pilot peptide) [pilot experiment peptide] | No additional peaks | completely abolished | approximately 10% | approximately 30% |  |  |
| EQLSFTSIGILQLLTIGTRSCWFFYCRY (Q49) [Peptide Q49] |  |  |  |  | 16772.4 | 1363.8 |
